# According to the supplement of paper PMC9170038:
# Tested on: MS2 coat protein
# Experiment: apparent KD of MS2 coat protein; higher = weaker reporter binding
# Settings: Eterna round: R107; input ligand: theophylline 20 uM
# How it was run: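 On-chip transcription from Illumina sequencing clusters produced the designed RNA switches. These were titrated with SNAP-549-labelled MS2 coat protein (twofold steps, 0.7 or 1.5 nM to 3 µM) in 100 mM Tris-HCl pH 7.5, 80 mM KCl, 4 mM MgCl2, with or without constant ligand. The apparent KD given is the per-design median of normalised cluster binding-curve fits.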
row,Sequence,apparent KD of MS2 coat protein [nM]
1,CGCACAUGAGGAUCACCCAUGUGAGGGUACCGAGGACCGGUACGGCCGCCACUCGCAGGACAUGAGGAUCACCCAUGUGCCGCCG [SSTA DOUBLE!!! :-D #6],41.9
2,UAACAUGAGGAUCACCCAUGUUUGAAGGAACGAGGACCGGUACGGCCGCCACUCGACGAGUGGAUGAGAAGUGGGAUAGUGUGCU [Same State Trp A GF7],18.2
3,AGGACUUGCGUUCAAAAUCCCAUGUUGGAAGGAGCGCAUAUAGUUGCAGGUAGGUCGCCGACAUGAGGAUCACCCAUGUCUUUUC [Zasorequer],43.8
4,GGUUUCGCGGGCGAUACCAGCUUGAUCGUACUGGCCUGGUACAUGAGGAUCACCCAUGUAAGCCCUUGGCAGCGCGCGCGAGACC [#1 Exclusion - Theophylline B Attempt #4 (HarryS)],16.9
5,AUCGGCCAGGGAAGGAGCGUGAAGACAUGAGGAUCACCCAUGUAGAGGCGCCGAAGGCGUUCGCAGGUAGGUCGCCCUGGCUGAU [#1 Same State - Arginine B Attempt #27 (HarryS)],23.8
6,AUUAACAUGAGGAUCACCCAUGUUUGUCUCCGAGGACCGGUACGGCCGCCACUCGCAGGUUGGAGUCGCUAUAUGGGCGUUCACU [theeternabot_sameState_MS2_Trp_A_42],53.5
7,GAGCUGAUGUAGAAAUUUUAUUUAUGAGAUACCAGUACAGAAAUGUACCCUUGGCAGCUCAAUUUUACAUGAGGAUCACCCAUGU [Ex Theophylline A 13],12.5
8,AUUAAUAGUUGUGAUACCAGACUUACAUGAGGAUCACCCAUGUUACUUAAGUGUUUUGAUGUCCCUUGGCAGCACUGUUUAGUUA [JR_SSTheophyB_Sub016],33
9,GGGUGCGGGCGAAGGAGCGUGAAGACAUGAGGAUCACCCAUGUAGAGGCCCGAACAGGGUUCGCAGGUAGGUCGCGCGCGUGCCC [#1 Same State - Arginine B Attempt #5 (HarryS)],20.4
10,CGAACAAAACUAAAUAAACAACUGGGUGAUACCAGUACAUGUGCGUACCCUUGGCAGCAUCCGGCCACAUGAGGAUCACCCAUGU [Ridiansoer],98.8
11,UCCUGCAGAGCGGCCGCCACUGUAUUGCGUGAGGAUGACCCAACAUGAGGAUCACCCAUGUUGUUUAGGACCGGGCUUGCCACCA [lkpmullin],18.5
12,CUUGACAUGAGGAUCACCCAUGUUGGUAAACGAGGACCGGUACGGCCGCCACUCGGUUACGUGUAGUACCGGUAAGAUCCAGGGU [Default title],42.6
13,GGGAAUGAACGUGAUACCAGAGAUCCGGUCUCCGUCACUCUACAUGAGGAUCACCCAUGUCUCCCUUGGCAGCACCGUCAUCGGG [Exclusion Theophylline B GF 29],43.3
14,ACAUGAGGAUCACCCAUGUUCCUCGCCGAUACCAGUGAAGAAGAACGCCCUUGGCAGCGGAAAGAAUAUAUUGGAGAUGAUAUAU [6.U],252
15,AUUUACAUGGUCAUAUAUAUAUCGUCAGAUACCAGACUAGAUAUAGUCCCUUGGCAGCUGUUACAUGAGGAUCACCCAUGUUAUA [JR_Nu_ExcTheophyA_Sub019],95.8
16,GGACUAACCAGAAGGAGCGACACGCAGAAACUGCAAAAUCCUCCACACGAGGAUCACCCGUGUCAGGUAGGUCGCUGGUUAGUCG [ArgXB 16 #Zipper #MS2Left #StaticStem #Blueprint],83.4
17,AAAGGAAGGUAAAAUAAAACUACAUGUGAAGGAGCGCGCGAAAGCGCAGGUAGGUCGCACAUGAGGAUCACCCAUGUCCUUCCAA [MAT - Exclusion Arginine A - Mod of Eli - D4],181
18,UGUAUGUGAUCUGAUACCAGAGUUGAUAACCUGAGGAUCACCCUGGUAAAGGCGAAAGCCCUCCCUUGGCAGCAGAUCGCAUACU,207
19,GUAAAUUAUAGAAGGAGCGUCGAAAAUGGGUAAACAUGAGGAUCACCCAUGUAAAGGGAACGACAGGUAGGUCGCUAUAAUUUAC [AstromonsSSArgB#15],190

# Same assay, conditions: Eterna round: R107; input ligand: theophylline 2 mM
row,Sequence,apparent KD of MS2 coat protein [nM]
1,AACGUAUACAGAAGGAGCGUGAAUUAUAUUACUCAUUGUUAUACAUGAGGAUCACCCAUGUCACAGGUAGGUCGCUGUAUUCGUA [JR_ExcArginiB_Sub018],162
2,ACAUUUAACUGAAGGAGCGUGAUUUCUACAACAUGAGGAUCACCCAUGUUCAUUACUCAUUCACAGGUAGGUCGCAGACUAAUGA [JR_SSArginiB_Sub031],23.5
3,GAGGAAACUCACAUGAGGAUCACCCAUGUACGAGGACCGGUACGGCCGCCACUCGAAACCAUGGGCGGUUGUACAUGGAAACAUG [Design 2],34.9
4,AUUAAGAAUAUGUAGACGGCGGAGAAGAGACGAGGACCGGUACGGCCGCCACUCGUGUUAGUUAACAUGAGGAUCACCCAUGUUA [#08 Tryptophan A Same State],12.6
5,AGAGUUAGACAAAAGUCUAGCUCACCAGAAGGAGCGUCCGAAAGGACAGGUAGGUCGCUGGUACACGAGGAUCACCCGUGUUCCU [ArgAS 16 #OpenEnded #AlternativeMS2],50.3
6,CUAUAAGUACCGGUCCUCAGAUCCUCAUGACGAGGACCGGUACGGCCGCCACUCGAAACAUGAGGAUCACCCAUGUAAUAAUAUC [Brourdmod13],44.1
7,GGAUAGGACAGAAGGAGCGACAUGAGGAUCACCCAUGUGGAUCAACGACGAAAGUCGCCAUGUCAGGUAGGUCGCUGUCCUAUCG [ArgXB 8 #MS2Gate #StaticStem #MS2LeftOffAptamer],969
8,AGCCCGUGAGCGGCCGCCACUGGAGGCUUUGCGCGACAUGAGGAUCACCCAUGUGUGCCCGGCGUUAGGACCGGGCUCACGUGGU [#1 Same State - Tryptophan B Attempt #20 (HarryS)],288
9,CCCAAAUAGAUCUUUGGAAUUUUACUCGAAGGAGCGUCAUAGUAGGCAGGUAGGUCGCGAGACAUGAGGAUCACCCAUGUAGAGA [kinmullin],45.8
10,AGAUUCGACACGGCCGCCACUUGGAGUGGCUGCUAGCAUGUUACACAUGAGGAUCACCCAUGUCUAAGGACCGGGUGUUGAGUCU [XTryp B #24],63.5
11,AUGCAUAGCGGAAGGAGCGCAAUAGAAUGACAUGAGGAUCACCCAUGUGUGUGAUGUGGGUUGCAGGUAGGUCGCCGAGUGGUAU [Exclusion - Arginine B (Freestyle 2)],108
12,UCAUGAGUUUCGGAUACCAGUGAUGUCGAUACAUGAGGAUCACCCAUGUUAGAGGAUGUACACCCUUGGCAGCCGGGUGUGGCGG [ooimullin],102
13,UCUCACAUGAGGAUCACCCAUGUUAAGGCCCGAGGACCGGUACGGCCGCCACUCGUUGGAAGCCGGUAACGUACGAAUCUUCCGU [theeternabot_sameState_MS2_Trp_A_18],22.9
14,GUUAUAUGAAAACAUAUAACAGUGGGUGAACGAGGACCGGUACGGCCGCCACUCGGACAUGAGGAUCACCCAUGUCCAUGUGAAA [AstrosExyTryA#6],22
15,AUUUGUACUUAGUGUUGAGUUCUGUCGGAAGGAGCGGAAUAUAAUCCAGGUAGGUCGCCGACAGACAUGAGGAUCACCCAUGUAA [#09 Exclusion - Arginine A],34.7
16,ACAUGAGGAUCACCCAUGUAUUACCGGGAAGGAGCGCGUAAGGACGCAGGUAGGUCGCUCGGCGUCGUGCUGGAAAGCACGACGA [#1 Same State - Arginine A Attempt #23 (HarryS)],17.9
17,CGCACAUGAGGAUCACCCAUGUGAGGGUACCGAGGACCGGUACGGCCGCCACUCGCAGGACAUGAGGAUCACCCAUGUGCCGCCG [SSTA DOUBLE!!! :-D #6],44.5
18,UAACAUGAGGAUCACCCAUGUUUGAAGGAACGAGGACCGGUACGGCCGCCACUCGACGAGUGGAUGAGAAGUGGGAUAGUGUGCU [Same State Trp A GF7],14.3
19,AGGACUUGCGUUCAAAAUCCCAUGUUGGAAGGAGCGCAUAUAGUUGCAGGUAGGUCGCCGACAUGAGGAUCACCCAUGUCUUUUC [Zasorequer],40.5
